The values that follow come from PMC12289034, “A highly potent human antibody neutralizing all serotypes of BK polyomavirus” (PLOS Pathogens, 2025).

Assay [1] addresses BKPyV VP1 serotype Ib1 pentamer (aa 31-300) (BK polyomavirus) (UniProt P03088). Description: crystal structure; VP1 Ib1 pentamer mixed with 319C07 Fab 1:1.7, complex isolated by SEC; hanging drop, 20 °C, 21% PEG1500, 0.1 M MIB pH 4.75; 1.96 Å.
Assay [2] deals with T1, BKPyV VP1 serotype II pentamer (aa 31-300) (BK polyomavirus serotype II, isolate …, UniProt A1IHZ0, strain).
T1 construct: BK polyomavirus major capsid protein VP1, serotype II, aa 31-300; A thrombin site lies between the N-terminal His tag and VP1 (pET15b); also called VP1 II; VP1-II; source: E. coli BL21 (DE3), purified (NiNTA, SEC)
As to the kind of experiment: ELISA; VP1 coated on the plate (1 µg/ml, 4 °C over weekend), blocked with 5% skim milk; antibody dilutions in PBS with 0.5% skim milk 1 h; HRP goat anti-human IgG; apparent EC50, three-parameter fit. As to conditions: both partners purified.

Assay [3] deals with T2, BKPyV VP1 serotype IVc2 pentamer (aa 31-300) (BK polyomavirus serotype IVc2, isolate …, UniProt B6VQF5, strain).
T2 construct: BK polyomavirus major capsid protein VP1, serotype IVc2, aa 31-300; A thrombin site lies between the N-terminal His tag and VP1 (pET15b); also called VP1 IV; VP1 IVc2; source: E. coli BL21 (DE3), purified (NiNTA, SEC)
The assay is described as above. The following applies: both partners purified.

Assay [4] addresses T3, BKPyV VP1 serotype III (BK polyomavirus, serotype III (isolate …, UniProt P14996, strain)).
T3 construct: BK polyomavirus major capsid protein VP1, serotype III; H69 instead of K69 is printed; the assembly state of the bought protein is not otherwise described; also called VP1 III; VP1-III; source: bought: Abcam (ab74567), expressed in S. cerevisiae, purified tag-free
The assay is described as above. As to conditions: both partners purified.

The target in assay [5] is T1, BKPyV VP1 serotype II pentamer (aa …). Description: cell-based or functional assay.
Assay [6] concerns the target T2, BKPyV VP1 serotype IVc2 pentamer (aa …). Description: cell-based or functional assay.
In assay [7] the target is T3, BKPyV VP1 serotype III. Description: cell-based or functional assay.

Take “BKPyV VP1 serotype Ib1 pentamer (aa 31-300) (from UniProt P03088 31-300) (domain or fragment)”: the stoichiometry N (usually the number of molecules, sites or subunits per partner or assembly) in assay [1] was 5.

B1: mAb 319C07 (antibody, V domains shown)
VH: QVQLQQWGAGLLKPSETLSLTCAVYRGSFSAYYWTWFRQPPGKGLEWIGEINHRGYTNYNPSLRGRVSISVDTSKKQFSLKLRSVNAADTAVYYCATLRSTSGWHDYFDYWGQGTLVTVSS
VL: EIVLTQSPGTLSLSPGERATLSCRASQSVSSSYLAWYQQTPGQAPRLLIYGASSRATGIPDRFSGSGSGTDFTLTISRLEPEDFVVYFCLQYGSSPLTFGPGTKVDIK
notes: heavy chain variable region of 319C07; human IgG1 heavy chain constant region (soluble IgG1 expression vector); kappa light chain of 319C07; also called antibody 319C07; AntiBKV; source: HEK293F, transient transfection, purified from supernatant (Protein G)
Consider B1, for which the EC50 (in assay [2]; in assay [3]; with BKPyV VP1 serotype III [4]) was 60 pM throughout. Further, the “IC50 of neutralisation of BKPyV serotype II pseudovirus (luciferase in HEK293TT cells, 72 h)” value in assay [5] is 0.35 pM. Further, the “IC50 of neutralisation of BKPyV serotype IV pseudovirus (luciferase in HEK293TT cells, 72 h)” value in assay [6] amounted to 0.88 pM. The “IC50 of neutralisation of BKPyV serotype III pseudovirus (luciferase in HEK293TT cells, 72 h)” value in the assay with BKPyV VP1 serotype III [7] was found to be 29.5 pM.
